Assay results published in patent US20200095340A1.
Positions count from the first letter of the chain named.

Experiments:
[1] = molecular target: biotinylated human DLL3 protein expressed as a human IgG1 fusion protein (human) (UniProt Q9NYJ7); assay: Octet BLI; biotinylated huDLL3-IgG1 fusion on streptavidin tips; single 50 nM; conditioned medium
Target sequence in this assay (Q9NYJ7 other isoform, or with tags, fused parts or gaps): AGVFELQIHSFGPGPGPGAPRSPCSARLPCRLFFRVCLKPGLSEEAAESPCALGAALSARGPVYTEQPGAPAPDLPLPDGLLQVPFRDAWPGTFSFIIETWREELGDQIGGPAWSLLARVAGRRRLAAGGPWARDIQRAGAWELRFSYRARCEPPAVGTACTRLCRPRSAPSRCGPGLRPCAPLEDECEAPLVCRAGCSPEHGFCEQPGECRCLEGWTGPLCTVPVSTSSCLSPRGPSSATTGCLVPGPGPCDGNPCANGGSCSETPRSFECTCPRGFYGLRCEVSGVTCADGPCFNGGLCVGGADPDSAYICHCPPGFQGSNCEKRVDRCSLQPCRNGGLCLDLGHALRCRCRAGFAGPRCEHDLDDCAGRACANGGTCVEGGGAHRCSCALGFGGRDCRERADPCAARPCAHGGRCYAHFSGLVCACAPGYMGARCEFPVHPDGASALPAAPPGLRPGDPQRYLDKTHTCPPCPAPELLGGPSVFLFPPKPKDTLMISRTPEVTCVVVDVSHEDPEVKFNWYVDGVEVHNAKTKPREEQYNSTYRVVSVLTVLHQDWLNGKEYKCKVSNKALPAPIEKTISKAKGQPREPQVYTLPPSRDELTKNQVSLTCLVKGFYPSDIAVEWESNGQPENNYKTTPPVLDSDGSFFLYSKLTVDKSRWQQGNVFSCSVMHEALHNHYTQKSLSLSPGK

[2] = molecular target: biotinylated human DLL3 protein expressed as a human IgG1 fusion protein (human) (UniProt Q9NYJ7); assay: Octet, biotinylated human DLL3-IgG1 fusion on streptavidin tips, single 50 nM, conditioned medium (relative KD)
Target sequence in this assay (Q9NYJ7 27-492): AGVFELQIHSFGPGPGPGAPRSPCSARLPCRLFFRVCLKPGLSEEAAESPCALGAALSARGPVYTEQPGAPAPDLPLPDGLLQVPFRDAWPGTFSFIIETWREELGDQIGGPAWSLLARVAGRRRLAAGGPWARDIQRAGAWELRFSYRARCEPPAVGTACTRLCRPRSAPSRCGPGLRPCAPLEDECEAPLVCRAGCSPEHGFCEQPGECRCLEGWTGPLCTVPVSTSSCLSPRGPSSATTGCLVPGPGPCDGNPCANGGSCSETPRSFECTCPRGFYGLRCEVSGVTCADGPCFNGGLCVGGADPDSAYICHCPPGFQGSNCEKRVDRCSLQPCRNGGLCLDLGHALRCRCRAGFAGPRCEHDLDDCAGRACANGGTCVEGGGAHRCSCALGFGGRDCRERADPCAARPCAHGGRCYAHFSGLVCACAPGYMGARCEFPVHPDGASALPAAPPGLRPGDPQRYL

B1: anti-DLL3 trispecific protein 1F01 (protein, part only; not given: CD3 fragment and albumin sdAb, part only)
chain, part: EVQLVESGGGLVQPGGSLTLSCVASGSTSSINAMGWYRRAPGKQRELVAGISSDGSKVYGDSVKGRFTISRDNAKNSVYLQMNSLRAEDTAVYYCYYFRTVSRSSMRYWGQGTLVTVSSGGGGSGGGSGGGGSGGGSHHHHHH
B1 showed a Kd [1] of 9.4 nM.

B2: anti-DLL3 trispecific protein 2F02 (protein, part only; not given: anti-CD3 fragment and anti-albumin sdAb, part only)
chain, part: B1 chain, part with M34V, G60A, D61G, R103G, S105Y
Binder B2 has a Kd [1] of 9.6 nM.

B3: anti-DLL3 trispecific protein, DLL3 binder 2E06 (protein, part only; not given: CD3 binder and albumin binder, part only)
chain, part: B1 chain, part with G60A, D61S, S102R, R103G
In the case of B3, the Kd [2] is reported as 11 nM.

B4: anti-DLL3 trispecific protein, DLL3 binder 2B011 (protein, part only; not given: CD3 binder and albumin binder, part only)
chain, part: B1 chain, part with S27N, K57R, G60A, R103G, Y108S
B4 gave a Kd [2] of 11 nM.

B5: anti-DLL3 trispecific protein, DLL3 binder 1F04 (protein, part only; not given: anti-CD3 and anti-albumin domains, part only)
chain, part: B1 chain, part with S27G, G60S, R103G, M106A
B5 gave a Kd [2] of 10 nM.

B6: anti-DLL3 trispecific protein, DLL3 binder 1H02 (protein, part only; not given: anti-CD3 fragment and anti-albumin domain, part only)
chain, part: B1 chain, part with T28K, V48A, G60A, D61Q, V101S, R103G
With B6 the Kd [2] was 10 nM.

B7: anti-DLL3 trispecific protein, DLL3 binder 2A09 (protein, part only; not given: anti-CD3 and anti-albumin domains, part only)
chain, part: B1 chain, part with I31R, D54N, G60S, R103G, R107S
B7 was tested, and the Kd [2] was 10 nM.

B8: anti-DLL3 trispecific protein, DLL3 binder 2F06 (protein, part only; not given: CD3 fragment and albumin sdAb, part only)
chain, part: B1 chain, part with M34Y, K57A, G60A, V101H, R103G
B8 showed a Kd [2] of 10 nM.

B9: anti-DLL3 trispecific protein, DLL3 binder 1B04 (protein, part only; not given: CD3 fragment and albumin sdAb, part only)
chain, part: B1 chain, part with S27T, K57L, G60A, T100I, S102R, R103G
B9 showed a Kd [2] of 11 nM.

B10: anti-DLL3 trispecific protein, DLL3 binder 1G09 (protein, part only; not given: anti-CD3 fragment and anti-albumin domain, part only)
chain, part: B1 chain, part with G60A, R103K
B10 was tested, and the Kd [2] was 10 nM.

B11: anti-DLL3 trispecific protein, DLL3 binder 1G04 (protein, part only; not given: anti-CD3 fragment and anti-albumin sdAb, part only)
chain, part: B1 chain, part with I31T, Y59L, G60A, S102N, R103L
In the case of B11, the Kd [2] is reported as 11 nM.

B12: anti-DLL3 trispecific protein, DLL3 binder 2B010 (protein, part only; not given: CD3 fragment and albumin sdAb, part only)
chain, part: B1 chain, part with I31R, V58L, G60L, S102L, R103G
With B12 the Kd [2] was 10 nM.

B13: anti-DLL3 trispecific protein, DLL3 binder 2C01 (protein, part only; not given: anti-CD3 fragment and anti-albumin sdAb, part only)
chain, part: B1 chain, part with S29A, G60A, T100Y, R103G
B13 was tested, and the Kd [2] was 12 nM.

B14: anti-DLL3 trispecific protein, DLL3 binder 1B02 (protein, part only; not given: anti-CD3 fragment and anti-albumin sdAb, part only)
chain, part: B1 chain, part with V58I, G60A, R103G
B14 showed a Kd [2] of 11 nM.

B15: anti-DLL3 trispecific protein 1D04 (protein, part only; not given: CD3 fragment and albumin sdAb, part only)
chain, part: B1 chain, part with I31K, G60A, R103G, S104A
B15 showed a Kd [1] of 9.7 nM.

B16: anti-DLL3 trispecific protein, DLL3 binder 2B01 (protein, part only; not given: CD3 fragment and albumin sdAb, part only)
chain, part: B1 chain, part with S30L, G60A, T100H, R103G
B16 gave a Kd [2] of 10 nM.

B17: anti-DLL3 trispecific protein, DLL3 binder 2G04 (protein, part only; not given: anti-CD3 fragment and anti-albumin sdAb, part only)
chain, part: B1 chain, part with K57L, G60A, T100I, V101L, R103G
B17 was tested, and the Kd [2] was 11 nM.

B18: anti-DLL3 trispecific protein, DLL3 binder 1D08 (protein, part only; not given: CD3 binder and albumin binder, part only)
chain, part: B1 chain, part with S27L, G60A, T100M, R103G
Binder B18 has a Kd [2] of 10 nM.

B19: anti-DLL3 trispecific protein 4G05 (protein, part only; not given: CD3 fragment and albumin sdAb, part only)
chain, part: EVQLVESGGGLVQPGGSLTLSCAASGSSVSILSMAWYRQAPGKKRELVAGISADGSTIYIDSVKGRFTISRDNAKNSVYLQMNSLRAEDTAVYYCYAYRWHTRYTYWGQGTLVTVSSGGGGSGGGSGGGGSGGGSHHHHHH
Work on B19 yielded a Kd [1] of 9.7 nM.

B20: anti-DLL3 trispecific protein 4G010 (protein, part only; not given: anti-CD3 and anti-albumin domains, part only)
chain, part: B19 chain, part with S27H, I31F, I58D, D61A, H101S
Binder B20 has a Kd [1] of 9.9 nM.

B21: anti-DLL3 trispecific protein, DLL3 binder 3D03 (protein, part only; not given: anti-CD3 fragment and anti-albumin sdAb, part only)
chain, part: B19 chain, part with S30V, I31F, T57M, I58D, H101R
B21 was tested, and the Kd [2] was 11 nM.

B22: anti-DLL3 trispecific protein, DLL3 binder 3A010 (protein, part only; not given: anti-CD3 fragment and anti-albumin sdAb, part only)
chain, part: B19 chain, part with S28R, I31F, I58L, H101T, Y104R
Binder B22 has a Kd [2] of 12 nM.

B23: anti-DLL3 trispecific protein, DLL3 binder 3B01 (protein, part only; not given: anti-CD3 fragment and anti-albumin sdAb, part only)
chain, part: B19 chain, part with I31F, A53G, I58D, H101T
B23 was tested, and the Kd [2] was 10 nM.

B24: anti-DLL3 trispecific protein, DLL3 binder 4E07 (protein, part only; not given: CD3 binder and albumin binder, part only)
chain, part: B19 chain, part with S28R, I31F, I58M, H101T, Y104L
Work on B24 yielded a Kd [2] of 11 nM.

B25: anti-DLL3 trispecific protein, DLL3 binder 4B01 (protein, part only; not given: anti-CD3 and anti-albumin domains, part only)
chain, part: B19 chain, part with S30K, I31F, A53R, I58D, H101T, Y104F
In the case of B25, the Kd [2] is reported as 11 nM.

B26: anti-DLL3 trispecific protein, DLL3 binder 3F06 (protein, part only; not given: anti-CD3 fragment and anti-albumin sdAb, part only)
chain, part: B19 chain, part with S28R, I31F, I58S, H101A
B26 showed a Kd [2] of 9.9 nM.

B27: anti-DLL3 trispecific protein 4A07 (protein, part only; not given: CD3 binder and albumin binder, part only)
chain, part: B19 chain, part with S28K, I31F, I58L, H101T, T105R
B27 gave a Kd [1] of 9.8 nM.

B28: anti-DLL3 trispecific protein, DLL3 binder 4B08 (protein, part only; not given: CD3 fragment and albumin sdAb, part only)
chain, part: B19 chain, part with I31F, L32M, I58D, D61A, H101T, Y104S
With B28 the Kd [2] was 10 nM.

B29: anti-DLL3 trispecific protein 3H03 (protein, part only; not given: anti-CD3 fragment and anti-albumin domain, part only)
chain, part: B19 chain, part with S30R, I31F, A53T, I58D, Y98L, H101T
B29 gave a Kd [1] of 9.9 nM.

B30: anti-DLL3 trispecific protein, DLL3 binder 3E09 (protein, part only; not given: CD3 binder and albumin binder, part only)
chain, part: B19 chain, part with S30R, I31F, A53R, I58D, H101S
Binder B30 has a Kd [2] of 10 nM.

B31: anti-DLL3 trispecific protein, DLL3 binder 3D01 (protein, part only; not given: CD3 binder and albumin binder, part only)
chain, part: B19 chain, part with I31F, A53R, I58D, H101I
Work on B31 yielded a Kd [2] of 10 nM.

B32: anti-DLL3 trispecific protein 4D010 (protein, part only; not given: anti-CD3 fragment and anti-albumin sdAb, part only)
chain, part: B19 chain, part with I31F, I58D, D61H, H101R
Work on B32 yielded a Kd [1] of 9.9 nM.

B33: anti-DLL3 trispecific protein, DLL3 binder 3D02 (protein, part only; not given: anti-CD3 fragment and anti-albumin sdAb, part only)
chain, part: B19 chain, part with S30R, I31F, A53R, I58D, H101I
With B33 the Kd [2] was 12 nM.

B34: anti-DLL3 trispecific protein 4F04 (protein, part only; not given: anti-CD3 fragment and anti-albumin sdAb, part only)
chain, part: B19 chain, part with G26R, I31F, A53T, I58D, H101L
B34 gave a Kd [1] of 9.8 nM.

B35: anti-DLL3 trispecific protein, DLL3 binder 4A01 (protein, part only; not given: CD3 binder and albumin binder, part only)
chain, part: B19 chain, part with S30R, I31F, A53Q, I58D, H101R
Work on B35 yielded a Kd [2] of 10 nM.

B36: anti-DLL3 trispecific protein, DLL3 binder 3C06 (protein, part only; not given: CD3 binder and albumin binder, part only)
chain, part: B19 chain, part with S27T, I31F, M34I, I58D, D61A, H101R
In the case of B36, the Kd [2] is reported as 10 nM.

B37: anti-DLL3 trispecific protein, DLL3 binder 4E06 (protein, part only; not given: anti-CD3 fragment and anti-albumin domain, part only)
chain, part: B19 chain, part with S27T, I31F, I58D, D61R, H101T, Y104L
In the case of B37, the Kd [2] is reported as 10 nM.

B38: anti-DLL3 trispecific protein, DLL3 binder 3E011 (protein, part only; not given: CD3 binder and albumin binder, part only)
chain, part: B19 chain, part with S28K, I31F, A53R, I58D, H101T, Y106F
Work on B38 yielded a Kd [2] of 11 nM.

B39: anti-DLL3 trispecific protein, DLL3 binder 3E04 (protein, part only; not given: CD3 fragment and albumin sdAb, part only)
chain, part: B19 chain, part with S30H, I31F, A53R, I58D, H101T, T105R
For B39, the Kd [2] was 11 nM.

B40: anti-DLL3 trispecific protein, DLL3 binder 4E01 (protein, part only; not given: anti-CD3 fragment and anti-albumin sdAb, part only)
chain, part: B19 chain, part with I31F, M34V, A53R, I58D, H101R
Work on B40 yielded a Kd [2] of 11 nM.

B41: anti-DLL3 trispecific protein, DLL3 binder 3E02 (protein, part only; not given: anti-CD3 fragment and anti-albumin domain, part only)
chain, part: B19 chain, part with S28G, S30R, I31F, A53P, I58D, H101T, T102R
Binder B41 has a Kd [2] of 12 nM.
